The supplement of paper PMC10567573

B1: SLC35F2 (parent)
chain: SFMPLVIKVTSATSVNLGILTADL

Variants of: B1
Test: protein stability index of a GFP-peptide fusion (GPS, HEK-293T) (PSI 1-6); higher = more stable
Details: c terminus: a fixed tail appended
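Further: lentivirally expressed fusions sorted by FACS into six bins by GFP to DsRed ratio, PSI derived from sequencing read proportions per bin multiplied by bin number.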

Variant	protein stability index
SFMPLVIKVVSATSVNLGILTADL [T10V]	3.4
SFMPLVIKVHSATSVNLGILTADL [T10H]	3.25
SFMPLVIKVWSATSVNLGILTADL [T10W]	3.57
SFMPLVIKVSSATSVNLGILTADL [T10S]	2.65
SFMPLVIKVFSATSVNLGILTADL [T10F]	3.67
SFMPLVIKVCSATSVNLGILTADL [T10C]	2.93
SFMPLVIKVISATSVNLGILTADL [T10I]	4.8
SFMPLVIKVYSATSVNLGILTADL [T10Y]	2.64
SFMPLVIKVDSATSVNLGILTADL [T10D]	3.46
SFMPLVIKVTSATSVNLGILTADI [L24I]	3.14
SFMPLVIKVTSATSVNLGILTADY [L24Y]	4.32
SFMPLVIKVTSATSVNLGILTADR [L24R]	1.89
SFMPLVIKVTSATSVNLGILTADE [L24E]	2.21
SFMPLVIKVTSATSVNLGILTADA [L24A]	3.11
SFMPLVIKVTSATSVNLGILTADK [L24K]	2.4
SFMPLVIKVTSATSVNLGILTADC [L24C]	3.76
SFMPLVIKVTSATSVNLGILTADN [L24N]	3.27
SFMPLVIKVTSATSVNLGILTADD [L24D]	1.55
SFMPLVIKVTCATSVNLGILTADL [S11C]	2.19
SFMPLVIKVTTATSVNLGILTADL [S11T]	2.03
SFMPLVIKVTFATSVNLGILTADL [S11F]	4.62
SFMPLVIKVTSITSVNLGILTADL [A12I]	2.85
SFMPLVIKVTSVTSVNLGILTADL [A12V]	2.75
SFMPLVIKVTSTTSVNLGILTADL [A12T]	2.89

Variant	protein stability index
SFMPLVIKVTSNTSVNLGILTADL [A12N]	2.58
SFMPLVIKVTSMTSVNLGILTADL [A12M]	2.9
SFMPLVIKVTSFTSVNLGILTADL [A12F]	2.25
SFMPLVIKVTSPTSVNLGILTADL [A12P]	1.22
SFMPLVIKVTSQTSVNLGILTADL [A12Q]	2.82
SFMPLVIKVTSETSVNLGILTADL [A12E]	3.09
SFMPLVIKVTSKTSVNLGILTADL [A12K]	4.17
SFMPLVIKVTSHTSVNLGILTADL [A12H]	2.37
SFMPLVIKVTSATSVRLGILTADL [N16R]	3.2
SFMPLVIKVTSATSVLLGILTADL [N16L]	3.94
SFMPLVIKVTSATSVHLGILTADL [N16H]	2.74
SFMPLVIKVTSATSVYLGILTADL [N16Y]	3.46
SFMPLVIKVTSATSVILGILTADL [N16I]	4.17
SFMPLVIKVTSATSVVLGILTADL [N16V]	4.07
SFMPLVIKVTSATSVKLGILTADL [N16K]	3.43
SFMPLVIKYTSATSVNLGILTADL [V9Y]	3.58
SFMPLVIKTTSATSVNLGILTADL [V9T]	1.46
SFMPLVIKNTSATSVNLGILTADL [V9N]	2.39
SFMPLVIKATSATSVNLGILTADL [V9A]	2.07
SFMPLVIKFTSATSVNLGILTADL [V9F]	3.51
SFMPLVIKLTSATSVNLGILTADL [V9L]	4.15
SFMPLVIKSTSATSVNLGILTADL [V9S]	1.56
SFMPLVIKHTSATSVNLGILTADL [V9H]	1.52
SFMPLVIKETSATSVNLGILTADL [V9E]	1.58

Variant	protein stability index
SFMPLVIKVTSATSVNLGILTASL [D23S]	2.11
SFMPLVIKVTSATSVNLGILTALL [D23L]	3.79
SFMPLVIKVTSATSVNLGILTANL [D23N]	3.05
SFMPLVIKVTSATSVNLGILTAVL [D23V]	3.83
SFMPLVIKVTSATSVNLGILTAWL [D23W]	2.49
SFMPLVIKVTSATSVNLGILTAHL [D23H]	3.1
SFMPLVIKVTSATSVNLGILTAAL [D23A]	2.74
SFMPLVIKVTSATSVNLGILTAGL [D23G]	3.96
SFMPLVIKVTSATSVNSGILTADL [L17S]	2.85
SFMPLVIKVTSATSVNFGILTADL [L17F]	2.72
SFMPLVIKVTSATSVNKGILTADL [L17K]	3.17
SFMPLVIKVTSATSVNGGILTADL [L17G]	2.9
SFMPLVIKVTSATSVNRGILTADL [L17R]	2.5
SFMPLVIKVTSATSVNPGILTADL [L17P]	2.74
SFMPLVIKVTSATSVNAGILTADL [L17A]	2.48
SFMPLVIKVTSATSVNVGILTADL [L17V]	2.44
SFMPLVIKVTSATSVNMGILTADL [L17M]	3.87
YFMPLVIKVTSATSVNLGILTADL [S1Y]	3.38
FFMPLVIKVTSATSVNLGILTADL [S1F]	3.08
LFMPLVIKVTSATSVNLGILTADL [S1L]	3.05
NFMPLVIKVTSATSVNLGILTADL [S1N]	3.55
TFMPLVIKVTSATSVNLGILTADL [S1T]	3.15
AFMPLVIKVTSATSVNLGILTADL [S1A]	3.22
MFMPLVIKVTSATSVNLGILTADL [S1M]	2.14

Variant	protein stability index
HFMPLVIKVTSATSVNLGILTADL [S1H]	2.96
PFMPLVIKVTSATSVNLGILTADL [S1P]	3.06
SFMPLVIGVTSATSVNLGILTADL [K8G]	2.94
SFMPLVIQVTSATSVNLGILTADL [K8Q]	2.87
SFMPLVIVVTSATSVNLGILTADL [K8V]	3.52
SFMPLVIRVTSATSVNLGILTADL [K8R]	3.26
SFMPLVIDVTSATSVNLGILTADL [K8D]	2.75
SFMPLVIHVTSATSVNLGILTADL [K8H]	2.59
SFMPLVIWVTSATSVNLGILTADL [K8W]	2.13
SFMPLVISVTSATSVNLGILTADL [K8S]	3.16
SFMPLVINVTSATSVNLGILTADL [K8N]	3.01
SFMPLVIIVTSATSVNLGILTADL [K8I]	3.97
SFMPLVIKVTSATSYNLGILTADL [V15Y]	2.21
SFMPLVIKVTSATSDNLGILTADL [V15D]	3.98
SFMPLVIKVTSATSGNLGILTADL [V15G]	2.91
SFMPLVIKVTSATSCNLGILTADL [V15C]	2.21
SFMPLVIKVTSATSWNLGILTADL [V15W]	4.14
SFMPLVIKVTSATSPNLGILTADL [V15P]	2.73
SFMPLVIKVTSATSINLGILTADL [V15I]	1.93
SFMPLVIKVTSATSMNLGILTADL [V15M]	3.77
SFMPLVIKVTSATSVNLGILTKDL [A22K]	2.21
SFMPLVIKVTSATSVNLGILTCDL [A22C]	4.09
